Results from patent publication US20240084027A1 (BEIJING MABWORKS, published 2024).
Where two headings read alike, the source gives them in different places.

B1: anti-PD-L1 nanobody (VHH)
VHH: QVQLLESGGGLVQPGGSLRLSCAASGFAFSDYAMTWVRQAPGKGLEWVSTINSGGQSSSYLDSVKGRFTSSRDNSKNTLYLQMNSLRAEDTAVYYCAKGVYMPWKAPKGQGTLVTVSS
notes: also called monospecific anti-PD-L1 nanobody
B2: MBS307-9 (bispecific antibody, human IgG1, kappa, L234A L235A)
heavy 1: QVQLQESGPGLVKPSDTLSLTCAVSGYSITTNYYWNWIRQPPGKGLEWMGYIKYDGSNNYNPSLKNRITISVDTSKNQFSLKLSSVTAVDTAVYYCARLDYWGQGTLVTVSSASTKGPSVFPLAPSSKSTSGGTAALGCLVKDYFPEPVTVSWNSGALTSGVHTFPAVLQSSGLYSLSSVVTVPSSSLGTQTYICNVNHKPSNTKVDKKVEPKSCDKTHTCPPCPAPEAAGGPSVFLFPPKPKDTLMISRTPEVTCVVVDVSHEDPEVKFNWYVDGVEVHNAKTKPREEQYNSTYRVVSVLTVLHQDWLNGKEYKCKVSNKALPAPIEKTISKAKGQPREPQVYTLPPSREEMTKNQVSLWCLVKGFYPSDIAVEWESNGQPENNYKTTPPVLDSDGSFFLYSKLTVDKSRWQQGNVFSCSVMHEALHNHYTQKSLSLSPGGGGGQVQLQESGPGLVKPSQTLSLTCTVSGGSITSDYWNWIRQHPGNKLEYMGYISYTGSTYYNPSLKSRISITRDTSKNQFSLKLSSVTTADTAVYYCARYRDWDVRAMDYWGQGTTVTVSSGGGGSGGGGSGGGGSGGGGSDIVMTQSPDSLAVSLGEKVTMNCKSSQSLLISGNQKNFLTWYQQKPGQPPKLLIYWASTRESGVPDRFSGSGSGTDFTLTISSLQAEDEAVYYCQNDFGFPFTFGQGTKLTAK
heavy 2: QVQLQESGPGLVKPSDTLSLTCAVSGYSITTNYYWNWIRQPPGKGLEWMGYIKYDGSNNYNPSLKNRITISVDTSKNQFSLKLSSVTAVDTAVYYCARLDYWGQGTLVTVSSASTKGPSVFPLAPSSKSTSGGTAALGCLVKDYFPEPVTVSWNSGALTSGVHTFPAVLQSSGLYSLSSVVTVPSSSLGTQTYICNVNHKPSNTKVDKKVEPKSCDKTHTCPPCPAPEAAGGPSVFLFPPKPKDTLMISRTPEVTCVVVDVSHEDPEVKFNWYVDGVEVHNAKTKPREEQYNSTYRVVSVLTVLHQDWLNGKEYKCKVSNKALPAPIEKTISKAKGQPREPQVYTLPPSREEMTKNQVSLSCAVKGFYPSDIAVEWESNGQPENNYKTTPPVLDSDGSFFLVSKLTVDKSRWQQGNVFSCSVMHEALHNHYTQKSLSLSPGGGGGQVQLVQSGAEVKKPGASVKVSCKASGYTFTDYHVNWVRQAPGQGLEWIGWIFPGSGRTFYTDKFKGRVTMTVDTSTSTVYMELSSLRSEDTAVYYCATDYGTSGYGLVYWGQGTTVTVSSGGGGSGGGGSGGGGSGGGGSDIQMTQSPSSLSASVGDRVTITCKASDRINNWLAWYQQKPGKAPKLLISGATSLETGVPSRFSGSGSGTDFTLTISSLQPEDEATYYCQQYWNIPFTFGQGTKLTAK
light: DVVLTQSPLSLPVTLGQPASISCRSSQSLENSNGNTFLNWFQQRPGQSPRLLIYKVSNRFSGVPDRFSGSGSGTDFTLKISRVEAEDVGVYYCLQVTHVPFTFGQGTKLEIKRTVAAPSVFIFPPSDEQLKSGTASVVCLLNNFYPREAKVQWKVDNALQSGNSQESVTEQDSKDSTYSLSSTLTLSKADYEKHKVYACEVTHQGLSSPVTKSFNRGEC
notes: Asymmetric: knob chain with the 56E5VH5VL4 scFv, hole chain with the 3C2VH6VL5 scFv, linker 4 (short linker); also called MBS307-9-1 + MBS307-9-2

What was measured:
human PD-L1-his protein [1] = biological target: T1, human PD-L1-his protein (human, UniProt Q9NZQ7 19-238); test: SPR on huPDL1 loaded on the chip; 3C2VH6VL5 injected first, anti-PD-L1 sdAb second
T1 construct: extracellular domain; also called human PD-L1 (ECD)-his; human PD-L1 protein; not shown: his tag
Procedure: To further determine the epitopes the two binding arms of the bi- or multi-specific antibodies bind, a competitive SPR binding assay was performed. Briefly, 1 μg/ml human PD-L1 (ECD)-his proteins (Cat #:10084-H08H, Sino Biological, CN) were coupled to a CM5 biosensor chip (Cat #:BR-1005-30, GE Life Sciences, USA). The un-reacted groups were then blocked with 1 M ethanolamine. The anti-PD-L1 antibodies, 3C2VH6VL5 and 56E5VH5VL4, of 5 μg/ml were respectively injected into the SPR running buffer (IBS-EP buffer, pH7.4, Cat #:BR-1006-69, GE Life Sciences, USA) at 30 μl/min. Then, a second anti-PD-L 1 antibody (i.e., the anti-PD-L1 nanobody) of 5 μg/ml was injected into the SPR running buffer at 30 μL/min. The binding affinity was calculated with the RUs of blank controls subtracted, and the association rate (kₐ) and dissociation rate (kd) were determined using the one-to-one Langmuir binding model.

[2] = biological target: T2, human CD40 on HEK293A/human CD40 cells (human, UniProt P25942 21-277); test: cell-based or functional assay
[3] = biological target: T2, human CD40 on HEK293A/human CD40 cells; test: cell-based or functional assay; remark: listed apart in the source
[4] = biological target: T2, human CD40 on HEK293A/human CD40 cells; test: FACS on HEK293A/human CD40 cells
Procedure: (§1) The bispecific antibodies as prepared above were tested for their binding capability to cell surface human, monkey and mouse CD40 proteins by FACS, using the HEK293A cells prepared in Example 1 that stably expressed human, monkey or mouse CD40. Briefly, a 96-well plate was seeded with 10⁵ HEK293A cells in 50 μl PBS, and then added with 100 μl serially diluted anti-CD40 antibody 714VH2VL2 and the bispecific antibodies of the disclosure (starting concentration at 40 μg/ml). After incubation at 4° C. for 1 h, the plate was washed by PBST for 3 times. The plate was added with 1:500 diluted APC-goat anti-mouse IgG (Cat #:405308, BioLegen, USA), incubated at 4° for 1 h, washed with PBS for 3 times, and subjected to fluorescence measurement in a FACS machine (BD).
(§2) Following the protocols in Example 4 and Example 5, the bi- or multi-specific antibodies of the disclosure were tested for their binding capability to human PD-L1 and human CD40 proteins by FACS using the HEK293A cells prepared in Example 1 that stably expressed human PD-L1 or human CD40.

[5] = biological target: T2, human CD40 on HEK293A/human CD40 cells; test: FACS on HEK293A/human CD40 cells; remark: listed apart in the source
Procedure: as §1, §2

[6] = biological target: T3, human PD-L1 on HEK293A/human PD-L1 cells (human, UniProt Q9NZQ7 19-290); test: FACS on HEK293A/human PD-L1 cells
Method in brief: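 HEK293A cells stably expressing the target (10⁵ cells/well) incubated with serially diluted antibodies from 40 μg/ml, 1 h at 4 °C. After PBST washes, bound antibody detected with 1:500 APC-goat anti-mouse IgG for 1 h at 4 °C and read by flow cytometry.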

human CD40-his protein = biological target: T4, human CD40-his protein (human, UniProt P25942 21-193); test: SPR (BIAcore 8K), human CD40-his coupled to CM5 chip, antibody injected
T4 construct: Bought protein; also called human CD40 protein; CD40 molecules; not shown: his tag

human PD-L1-his protein [7] = biological target: T1, human PD-L1-his protein; test: SPR (BIAcore 8K), human PD-L1-his coupled to CM5 chip, antibody injected
[8] = biological target: T3, human PD-L1 on HEK293A/human PD-L1 cells; test: FACS blocking assay on HEK293A/human PD-L1 cells; blocked ligand PD-1-Fc
Method in brief: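 Cells preincubated with serially diluted antibody 1 h at 4° C, washed, then exposed to 200 μg/ml PD-1-Fc for 1 h at 4° C. Bound PD-1-Fc detected with PE-anti-human IgG and read by flow cytometry.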

[9] = biological target: T3, human PD-L1 on HEK293A/human PD-L1 cells; test: as above; remark: listed apart in the source
Procedure: (§3) The bispecific antibodies were tested for their blocking activity on PD-1-PD-L1 binding by FACS using the HEK293A cells stably expressing human PD-L1 molecules as prepared in Example 1. Briefly, a 96-well plate was seeded with 10⁵ HEK293A/human PD-L1 cells in 100 μl cell culture medium, and then added with 50 μl serially diluted anti-PD-L1 antibody 56E5VH5VL4 or MBS307-3 molecules. After incubation at 4° C. for 1 h. the plate was washed with PBST for 3 times, added with 100 μl 200 μg/ml PD-1-Fc fusion proteins (Cat #:10377-10211, Sino Biological, CN), incubated at 4° C. for 1 h, washed with PBST for 3 times, and added with 1:500 diluted PE-goat anti-human IgG (Cat #:PAI-86078, Thermofisher, USA). After incubation at 4° C. for 1 h, the plate was washed with PBST for 3 times and measured for fluorescence using a FACS machine (BD).
(§4) Following the protocol of Example 7, the bi- or multi-specific antibodies were tested for their capability to block PD-1-PD-L1 binding by FACS, using the HEK293A cells prepared in Example 1 that stably expressed human PD-L1 molecules.

[10] = biological target: T3, human PD-L1 on HEK293A/human PD-L1 cells; test: as above; remark: listed apart in the source
Procedure: as §3, §4

T2 sequence (P25942 21-277 limits assumed): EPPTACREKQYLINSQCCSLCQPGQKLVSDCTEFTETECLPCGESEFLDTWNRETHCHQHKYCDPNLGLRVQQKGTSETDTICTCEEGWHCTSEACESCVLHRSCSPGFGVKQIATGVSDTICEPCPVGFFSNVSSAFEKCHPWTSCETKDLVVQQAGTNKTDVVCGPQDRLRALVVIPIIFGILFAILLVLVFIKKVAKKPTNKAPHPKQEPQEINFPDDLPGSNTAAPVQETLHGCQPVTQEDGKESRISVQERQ
T3 sequence (Q9NZQ7 19-290 limits assumed): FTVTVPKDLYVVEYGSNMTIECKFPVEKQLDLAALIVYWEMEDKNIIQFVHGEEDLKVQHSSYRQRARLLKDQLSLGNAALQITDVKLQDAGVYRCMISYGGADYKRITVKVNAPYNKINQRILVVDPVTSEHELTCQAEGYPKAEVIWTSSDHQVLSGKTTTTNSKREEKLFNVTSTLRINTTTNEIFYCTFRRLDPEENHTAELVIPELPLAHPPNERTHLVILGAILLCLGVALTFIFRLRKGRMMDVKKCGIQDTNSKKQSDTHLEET
T1 sequence (Q9NZQ7 19-238): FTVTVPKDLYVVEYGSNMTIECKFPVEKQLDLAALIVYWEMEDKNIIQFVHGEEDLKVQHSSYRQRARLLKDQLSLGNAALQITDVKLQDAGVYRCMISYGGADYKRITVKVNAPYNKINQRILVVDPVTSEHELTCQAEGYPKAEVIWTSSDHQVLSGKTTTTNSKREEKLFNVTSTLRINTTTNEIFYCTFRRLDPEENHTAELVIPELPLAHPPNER
T4 sequence (P25942 21-193 limits assumed): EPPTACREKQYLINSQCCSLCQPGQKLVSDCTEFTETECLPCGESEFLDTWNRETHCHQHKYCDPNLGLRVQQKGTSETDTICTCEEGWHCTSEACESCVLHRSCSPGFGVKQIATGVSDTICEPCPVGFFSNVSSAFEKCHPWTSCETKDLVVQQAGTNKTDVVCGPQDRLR

binding result (human PD-L1-his protein [1])	EC50 (read off the curve); HEK-Blue/CD40 reporter, OD630, plate coated with human PD-L1-his [2]	EC50 (read off the curve); HEK-Blue/CD40 reporter, OD630, plate coated with human PD-L1-his [3]	EC50 (read off the curve) [4]	EC50 (read off the curve) [5]	EC50 (read off the curve) [6]	Kd (human CD40-his protein)	Kd (human PD-L1-his protein [7])	IC50 (read off the curve) [8]	IC50 (read off the curve) [9]	IC50 (read off the curve) [10]	Binder
binds											B1
	~20 ng/mL	~10 ng/mL	~70 ng/mL	~20 ng/mL	~200 ng/mL	2.9 nM	0.683 nM	~600 ng/mL	~200 ng/mL	~200 ng/mL	B2
